Test results: the RNAGym collection of RNA variant scans (doi:10.1073/pnas.2313332121)
Fewer inactive variants are shown than the library holds.

B1: TPR 5TU (parent)
chain: GGAUCUUCUCGAUCUAACAAAAAAGACAAAUCUGCCACAAAGCUUGAGAGCAUCUUCGGAUGCAGAGGCGGCAGCCUUCGGUGGCGCGAUAGCGCCAACGUUCUCAACUAUGACACGCAAAACGCGUGCUCCGUUGAAUGGAGUUUAUCAUG

Variants of: B1
Assay: polymerase ribozyme fitness, log enrichment relative to wild type (log ratio); higher = more active; in vitro selection for triplet polymerase activity
How it was run: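 Input and output libraries were sequenced on Illumina after a single in vitro selection round, run in triplicate on PCR-built, transcribed mutant libraries of each subunit of a heterodimeric triplet polymerase ribozyme. Selection annealed libraries to a biotinylated primer, the partner subunit and triplets, incubated them frozen at −7 °C, then gel-excised extended constructs for streptavidin-bead capture and RT-PCR. Genotypes with ≥10 input reads and ≥1 read per output were kept. Fitness is the logarithm, taken in base 2, of genotype enrichment divided by wild-type enrichment, using inverse-variance-weighted replicate averages.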

Row | Variant | polymerase ribozyme fitness (log ratio)
1 | A41C U102A | -1.07
2 | G62C G92C | -3.09
3 | C114A C132U G133C | -3.96
4 | A12U G59U G94C C114U | -2.68
5 | A49U C96A | -3.45
6 | C85A C118G | -0.907
7 | U7A U45G A49C G50C C87U C96A | ≤ -4.2
8 | U56A G59U C63G C87U | 1.72
9 | C27U G81U C85U | -2.15
10 | C96U A119U | -0.778
11 | C85A G143U | -2.37
12 | U9C U31A U55A G59C U82G C108A C129G U144C | ≤ -4.2
13 | U31C G94C C105A | -1.61
14 | U4A U6G A22U U31G C35U U56A G68C C95U C125G U144C | ≤ -4.2
15 | C18U G50U C96G U146C | -0.747
16 | C36U G92C | -1.37
17 | C93U A98G C103A | -2.73
18 | C14U U15A C93U U101A | -2.56
19 | C35U C57A | 0.0108
20 | U33A C69G C87G | ≤ -4.2
21 | A19G C123G | -1.22

Row | Variant | polymerase ribozyme fitness (log ratio)
22 | G58C A64C C69G C85U A110U U134G | ≤ -4.2
23 | A147U | 1.1
24 | C38U C93U | -1.06
25 | G48U C85U | -0.485
26 | G50C C87U A113C C116A G143U U145C | ≤ -4.2
27 | A3C U4A G71U G88A | ≤ -4.2
28 | A20C A41C U55C C93G C99U U102G | ≤ -4.2
29 | U15G A24U A60G G92U | 0.475
30 | C93A C118G | -3.44
31 | A29C A39C U53A A122G C123A U135G U146A | ≤ -4.2
32 | G46C A64G A91C | ≤ -4.2
33 | A39G G42C A64U G84C C85U C103G C108U G117C A147G | ≤ -4.2
34 | A20U A150G | -1.81
35 | C18U C57A A115C G143U U148A | ≤ -4.2
36 | C85G G88A | -4.01
37 | U53G U61A A97G A113U | -4.18
38 | C43G U55C G70A C85A C87G C95U G133U | ≤ -4.2
39 | C38U A120U A142U | -0.329
40 | A47C C51A C54U U61A C79A C93G C95A C132U C149U | ≤ -4.2
41 | G126A G140A | -3.54
42 | A17C U55A G68A A73G C85U U127A G141U | ≤ -4.2

Row | Variant | polymerase ribozyme fitness (log ratio)
43 | G59A A137U G141C | -3.95
44 | C10U A52U C85A | ≤ -4.2
45 | C118U A119U | -0.842
46 | U6A A21U C76A G86U | -2.79
47 | C87A U146G | ≤ -4.2
48 | C8U C95U | -2.24
49 | U104C C116G | 0.144
50 | G25U A52G U56A A60G G133C | -4.06
51 | U15A C27G A30U G68A A89U C95G A98U | ≤ -4.2
52 | C35U A60G C79U G86C C93G G94A U104C | ≤ -4.2
53 | A40U A60U | -0.238
54 | C38U G84A U139A | ≤ -4.2
55 | C32G C93G | ≤ -4.2
56 | C14U A23U U56C C87U U90G | ≤ -4.2
57 | A17U A22U A52G G92C A115G | -2.67
58 | G81U C87A A107G U144G | ≤ -4.2
59 | A26C A52C C85U G117A A142G | -3.88
60 | U4A G94A | -0.663
61 | G88U C108G C118U A120U | ≤ -4.2
62 | U6A A21U U31A G74A | ≤ -4.2
63 | U4G G11C A40U G50C G83U | ≤ -4.2

Row | Variant | polymerase ribozyme fitness (log ratio)
64 | G42C C116G A120U A138G G141U G143A | ≤ -4.2
65 | C14G U31A A40U U90G G92A A107G G112A G133U G141A | ≤ -4.2
66 | A19C A21C A26C U44A C57A U61A G68A G86A C118U | ≤ -4.2
67 | A52C A73G A138G | ≤ -4.2
68 | C5A A26G C36A C96A | ≤ -4.2
69 | U53A A107U U144G | -2.6
70 | A21C A22U A89U G92C G94U G141A | ≤ -4.2
71 | G25A C27G A30C C32G G68A C87A A107U | ≤ -4.2
72 | C35U C125A U134C | -0.129
73 | U55A C76A A115G A121C | -1.09
74 | C35U G117C C118U | -1.01
75 | C14U A41C G50U A52C G84A U90G A91C C116U G140A | ≤ -4.2
76 | C36U A60G C87A G88C G141C | ≤ -4.2
77 | U45G A52U U55A A73U C85U G117A C149A | ≤ -4.2
78 | A24C C27A U56A G58A C72U A73U C87U | ≤ -4.2
79 | C14A A16G U45A U55G U61A G65U G94C C96U U101G | ≤ -4.2
80 | A12U A17U C18U G34A A64G C87G | ≤ -4.2
81 | G84A A91U | ≤ -4.2
82 | A28U U55G C85G G88A A89U C103U G143C | ≤ -4.2
83 | A21G G141A | 1.12
